The source of these data is patent US20210145976A1 (ARO BIOTHERAPEUTICS, published 2021).

Positions count from the first letter of the chain named.

B1: SEQ ID NO 153 (designed binder)
chain: MLPAPKNLVVSRVTEDSARLSWTAPDAALDSFRIAYTEYFVGGEAIVLTVPGSERSYDLTGLKPGTEYGVGIYGVKGGAGSSPLSAIFTT
notes: FN3 domain
B2: SEQ ID NO 203 (designed binder)
chain: B1 chain with A35E, T37Y, Y39S, F40Y, V41G, G42H, G69D, A79Y, G80Y, S82R
notes: FN3 domain
B3: SEQ ID NO 184 (designed binder)
chain: MLPAPKNLVVSRITEDSARLSWTAPDAAFDSFGIGYYEHKRFGEAIQLSVPGSERSYDLTGLKPGTEYEVDIEGVKGGVLSWPLFAEFTT
notes: FN3 domain
B4: SEQ ID NO 224 (designed binder)
chain: MLLAPKNLVVSRVTEDSARLSWTAPDAAFDSFRYLEQGLYGEAIVLTVPGSERSYDLTGLKPGTEYWVEIIGVKGGEYSTPLSAIFTT
notes: FN3 domain
B5: SEQ ID NO 157 (designed binder)
chain: MLPAPKNLVVSRVTEDSARLSWTAPDAAFDSFAIEYYEYVGNGEAIVLTVPGSERSYDLTGLKPGTEYQVGIYGVKGGYYSRPLSAIFTT
notes: FN3 domain
B6: SEQ ID NO 218 (designed binder)
chain: B5 chain with A33T, E35L, Y39M, N42E, L62P, Q69W, G71D, Y79G, Y80W
notes: FN3 domain
B7: SEQ ID NO 225 (designed binder)
chain: B5 chain with A33K, Y37F, N42Y, Q69Y, G71A, Y79W
notes: FN3 domain
B8: SEQ ID NO 241 (designed binder)
chain: B5 chain with A33N, E35Y, Y39W, V40F, G41V, N42S, Q69F, G71D, Y73D, Y80R
notes: FN3 domain
B9: SEQ ID NO 206 (designed binder)
chain: B5 chain with A33D, Y37D, Y39L, V40W, G41K, Q69R, G71F, Y80G, R82F
notes: FN3 domain
B10: SEQ ID NO 204 (designed binder)
chain: B5 chain with S21P, A33W, E35S, Y39S, N42Y, Q69Y, G71D, Y73S, Y79V, R82L
notes: FN3 domain
B11: SEQ ID NO 230 (designed binder)
chain: MLPAPKNLVVSRVTEDSARLSWTAPDAAFDSFQIRYPKRWISGEAIVLTVPGSERSYDLTGLKPGTEYEVVIRGVKGGEYSWPLSAIFTT
notes: FN3 domain
B12: SEQ ID NO 209 (designed binder)
chain: MLPAPKNLVVSRVTEDSARLSWTAPDAAFDSFTIPYIEYVWWGEAIVLTVQGSERSYDLTGLKPGTEYPVTIGGVKGGSRSHPLHAHFTT
notes: FN3 domain
B13: SEQ ID NO 189 (designed binder)
chain: MLPAPKNLVVSRVTEDSARLSWTAPDAAFDSFHEWVYFGEAIVLTVPGSERSYDLTGLKPGTEYFVDIWGVKGGTVSKPLSAIFTT
notes: FN3 domain
B14: SEQ ID NO 161 (designed binder)
chain: MLPAPKNLVVSRVTEDSARLSWTAPDAAFDSFTIRYWEELPTGEAIVLTVPGSERSYDLTGLKPGTEYTVEIFGVKGGYLSRPLSAISTT
notes: FN3 domain
B15: SEQ ID NO 196 (designed binder)
chain: MLPAPKNLVVSRVTEDSARLSWTAPDAAFDSFNIHYVEWWVLGEAIVLTVPGSERSYDLTGLKPGTEYPVYIYGVKGGPKSIPLSAIFTT
notes: FN3 domain
B16: SEQ ID NO 201 (designed binder)
chain: B15 chain with H35D, V37W, W39T, L42I, P69E, Y71I, Y73P, P79T, K80I, I82P
notes: FN3 domain
B17: SEQ ID NO 244 (designed binder)
chain: MLPAPKNLVVSRVTEDSARLSWTAPDAAFDSFHIDYSEFHLRGEAIVLTVPGSERSYDLTGLKPGTEYLGIFGVKGGEQSGPLSAIFTT
notes: FN3 domain
B18: SEQ ID NO 221 (designed binder)
chain: MLPAPKNLVVSRVTEDSARLSWTAPDAAFDSFHISYQEVVAEGEAIYLRVPGSERSYDLTGLKPGTEYYVLIHGVKGGYESKPLDASFTT
notes: FN3 domain
B19: SEQ ID NO 171 (designed binder)
chain: MLPAPKNLVVSRVTEDSARLSWTAPDAAFDSFAIRYLEWWDVGEAIVLTVPGSERSYDLTGLKPGTEYLVEIKGVKGGKFSYPLSAIFTT
notes: FN3 domain
B20: SEQ ID NO 242 (designed binder)
chain: B19 chain with A33P, R35K, D41S, V42W, L69R, E71P, K73S, K79G, F80M, Y82G
notes: FN3 domain
B21: SEQ ID NO 199 (designed binder)
chain: B19 chain with A33G, L37F, V42L, L59P, L69N, E71T, K73Q, K79F, F80P, Y82M
notes: FN3 domain
B22: SEQ ID NO 227 (designed binder)
chain: B19 chain with A33R, D41N, V42I, L69H, E71D, K73W, K79Y, F80S
notes: FN3 domain
B23: SEQ ID NO 229 (designed binder)
chain: B19 chain with A33S, R35H, L37D, W39D, D41R, V42R, K73P, F80A
notes: FN3 domain
B24: SEQ ID NO 231 (designed binder)
chain: MLPAPKNLVVSRVTEDSARLSWTAPDAAFDSFEIPYIETVALGEAIVLTVPGSERSYDLTGLKPGTEYYVEIYGVKGGSYSYPLSAISTT
notes: FN3 domain
B25: SEQ ID NO 208 (designed binder)
chain: MLPAPKNLVVSRVTEDSARLSWTAPDAAFDSFGIVYREPYVGGEAIVLTVPGSERSYDLTGLKPGTEYGVPIPGVKGGYDSGPLSAIFTT
notes: FN3 domain
B26: SEQ ID NO 155 (designed binder)
chain: MLPAPKNLVVSRVTEDSARLSWTAPDAAFDSFPITYRERSQYGEAIVLTVPGSERSYDLTGLKPGTEYVVPIEGVKGGRGSKPLSAIFTT
notes: FN3 domain
B27: SEQ ID NO 239 (designed binder)
chain: B26 chain with P33A, R37Y, R39G, S40R, Q41W, Y42R, V69G, E73R, R79T, K82L
notes: FN3 domain
B28: SEQ ID NO 234 (designed binder)
chain: B26 chain with P33Y, R37W, R39T, S40W, Q41D, V69K, E73T, R79G, G80P, K82V
notes: FN3 domain
B29: SEQ ID NO 173 (designed binder)
chain: MLPAPKNLVVSRVTEDSARLSWTAPDAAFDSFTIHYRELYVQAIVLTVPGSERSYDLTGLKPGTEYLVMIPGVKGGPTSVPLSAIFTT
notes: FN3 domain
B30: SEQ ID NO 186 (designed binder)
chain: MLPAPKNLVVSRVTEDSARLSWTAPDAAFDSFFIGYLESAEAIVLTVPGSERSYDLTGLKPGTEYLVTIQGVKGGIASDPLSAIFTT
notes: FN3 domain
B31: SEQ ID NO 191 (designed binder)
chain: MLPAPENLVVSRVTEDSARLSWTAPDAAFDSFEITYEENWRRGEAIVLTVPGSERSYDLTGPKPGTEYIVIIQGVKGGAESWPLSAIFTT
notes: FN3 domain
B32: SEQ ID NO 172 (designed binder)
chain: MLPAPKNLVVSRVTEDSARLSWTAPDAAFDSFPIEYDEWWALGEAITLIVPASERSYDLTGLKPGTEYVVKIHGVKGGQRSYPLIAFFTT
notes: FN3 domain
B33: SEQ ID NO 232 (designed binder)
chain: MLPAPKNLVVSRVTEDSARLSWTAPDAAFDSFTIAYDETLNLGEAIVLTVPGSERSYDLTGLKPGTEYIVGIFGVKGGTHSWPLSAIFTT
notes: FN3 domain

One experiment deals with T1, recombinant biotinylated CD71 extracellular domain (Sino Biologics) with an N-terminal 6His tag (human, UniProt P02786 89-760, biotinylated (sites not given)).
T1 construct: extracellular domain; also called hCD71; huCD71
T1 sequence (P02786 other isoform, or with tags, fused parts or gaps): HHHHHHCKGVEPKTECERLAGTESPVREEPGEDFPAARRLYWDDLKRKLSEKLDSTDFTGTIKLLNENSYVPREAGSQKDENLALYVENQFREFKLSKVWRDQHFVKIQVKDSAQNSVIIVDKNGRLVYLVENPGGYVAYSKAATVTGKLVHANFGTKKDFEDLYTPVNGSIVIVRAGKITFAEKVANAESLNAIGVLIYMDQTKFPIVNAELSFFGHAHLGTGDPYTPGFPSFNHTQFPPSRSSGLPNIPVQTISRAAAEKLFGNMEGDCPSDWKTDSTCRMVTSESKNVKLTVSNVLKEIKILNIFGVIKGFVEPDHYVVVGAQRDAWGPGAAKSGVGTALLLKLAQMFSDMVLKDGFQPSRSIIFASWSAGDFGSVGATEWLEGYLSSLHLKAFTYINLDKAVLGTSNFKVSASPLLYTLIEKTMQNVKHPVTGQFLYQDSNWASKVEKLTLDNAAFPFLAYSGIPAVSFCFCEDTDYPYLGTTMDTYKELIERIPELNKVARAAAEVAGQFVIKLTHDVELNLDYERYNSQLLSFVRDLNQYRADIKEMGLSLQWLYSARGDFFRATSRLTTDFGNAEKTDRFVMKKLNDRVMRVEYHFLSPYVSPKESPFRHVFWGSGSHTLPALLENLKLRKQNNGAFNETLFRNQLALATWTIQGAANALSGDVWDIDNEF
Kind of experiment: screening ELISA, ratio. On the technique in general: ELISA stands for enzyme-linked immunosorbent assay.
For the molecule B1, the “hCD71:HSA” value is 73.
Same read-out and setting: the same measure for B2: 1020; for B3: 235.
Consider B4, for which the “hCD71:HSA” value was 122.
As to B5, the “hCD71:HSA” value came out at 1080.
Same read-out and setting: the same measure for B6: 71; for B7: 210; for B8: 1230.
Turning to B9, the “hCD71:HSA” value came out at 314.
For B10, the “hCD71:HSA” value turned out to be 113.
As for B11, the “hCD71:HSA” value came out at 1050.
Still for that read-out and setting: the value for B12 was 57; that for B13 was 29; that for B14 was 240.
On the same count and under the same terms, the value for B15 was 50.
For B16, the “hCD71:HSA” value was 106.
On the same count and under the same terms, the value for B17 was 330.
On the same count and under the same terms, the same measure for B18: 537.
Still for that read-out and setting: the same measure for B19: 1960; for B20: 178.
Consider B21, for which the “hCD71:HSA” value turned out to be 101.
The same measure, in the same setting: the value for B22 was 1680; that for B23 was 154; that for B24 was 86.
Same read-out and setting: the value for B25 was 49.
On the same count and under the same terms, the same measure for B26: 71.
Consider B27, for which the “hCD71:HSA” value was found to be 83.
Take B28: the “hCD71:HSA” value amounted to 94.
Still for that read-out and setting: the same measure for B29: 47; for B30: 1090.
Turning to B31, the “hCD71:HSA” value was 43.
The same measure, in the same setting: the same measure for B32: 1160; for B33: 629.

The target in the next experiment is T1, recombinant biotinylated CD71 …. Description: screening ELISA.
As for B1, the hCD71 came to 957000.
As to B2, the hCD71 is 3.38e+06.
Same read-out and setting: the value for B3 was 470000; that for B4 was 2.02e+06; that for B5 was 2.66e+06.
Regarding B6, the hCD71 came to 2.39e+06.
Turning to B7, the hCD71 worked out at 2.96e+06.
On the same count and under the same terms, the same measure for B8: 2.7e+06.
On the same count and under the same terms, the same measure for B9: 833000.
Still for that read-out and setting: the same measure for B10: 2.77e+06; for B11: 2e+06; for B12: 790000.
Regarding B13, the hCD71 worked out at 1.96e+06.
On to B14, for which the hCD71 came to 1.21e+06.
With B15, the hCD71 came out at 1.72e+06.
With B16, the hCD71 came out at 1.2e+06.
Turning to B17, the hCD71 was 545000.
Regarding B18, the hCD71 was found to be 1.96e+06.
The same measure, in the same setting: the value for B19 was 3.72e+06; that for B20 was 872000.
Same read-out and setting: the value for B21 was 1.46e+06.
B22: the hCD71 was determined as 3.85e+06.
In the case of B23, the hCD71 turned out to be 570000.
Take B24: the hCD71 was 2.27e+06.
Take B25: the hCD71 is 2.29e+06.
As for B26, the hCD71 stood at 1.84e+06.
The same measure, in the same setting: the same measure for B27: 419000.
Consider B28, for which the hCD71 was found to be 680000.
B29: the hCD71 came out at 979000.
The same measure, in the same setting: the value for B30 was 2.02e+06; that for B31 was 1.47e+06.
On the same count and under the same terms, the same measure for B32: 4.31e+06; for B33: 1.7e+06.
